Results published in patent US20220282288A1, “NOVEL OLEATE HYDRATASES” (BRAIN BIOTECH AG, priority 2019, published 2022).

Assays:
[1] = Conversion of oleic acid to 10-hydroxystearic acid by cell-free extracts (HPLC); type: biochemical; conditions: for activity at 30° C. compared with the wildtype enzymes: FIG. 3; for conversion of oleic acid to 10-hydroxystearic acid: cell-free extracts, pH7.0, 30° C., 150 mM oleic acid, 60 min, FAD 0.1 mM, NADH 5 mM, HPLC analysis
[2] = Effects of temperature on enzyme activity (oleic acid to 10-hydroxystearic acid); type: biochemical; conditions: pH7.0, 150 mM oleic acid, 20 min
Procedure: The reactions were performed in 100 mM citrate/phosphate buffer (pH7.0) containing MgSO4;
3.1 mg/ml total protein of Lactococcus lactis (a) or 5.6 mg/mL of total protein of chimeric oleate hydratase from Lysinibacillus fusiformis and Lactococcus lactis (b). FAD (0.1 mM) and NADH (5 mM) were applied for the FAD-reducing conditions. Reactions were started by the addition of 150 mM oleic acid for 20 min. At the relative activity of 100%, the specific enzyme activity of the oleate hydratase from Lactococcus lactis was 0.8 μmol min^−1 mg^−1 total protein and the specific enzyme activity of the chimeric oleate hydratase from Lysinibacillus fusiformis and Lactococcus lactis was 1.0 μmol min^−1 mg^−1 total protein.

[3] = Kim, Bi-Na et al. (2012); cited from earlier work
[4] = Effects of pH on enzyme activity (oleic acid to 10-hydroxystearic acid, HPLC-MS); type: biochemical; conditions: citrate/phosphate buffer pH 5.6-8.0, 30° C., 40 min, 150 mM oleic acid
Procedure: The reactions were performed in 100 mM citrate/phosphate buffer (pH levels ranging from 5.6-8.0) containing MgSO4; 8.9 mg/ml total protein of Lactococcus lactis or 9.3 mg/mL of total protein of chimeric oleate hydratase from Lysinibacillus fusiformis and Lactococcus lactis. FAD (0.1 mM) and NADH (5 mM) were applied for the FAD-reducing conditions. Reactions were started by the addition of 150 mM oleic acid at 30° C. for 40 min. Following the reactions, the solutions of fatty acids and hydroxy fatty acids were recovered by three consecutive extractions with 1.6 volume of dichloromethane. After solvent evaporation, the resultant sample was diluted in ethanol and analyzed by HPLC-MS. Analyses were performed on an Agilent 1100 HPLC instrument equipped with evaporative light scattering detector (ELSD) and a Luna® C18 (2) HPLC column (RP-18e 5 μm, 250×4.6 mm) maintained at 50° C. The elution system consisted of ddH2O with 0.1% formic acid (A) and methanol with 0.1% formic acid (B). The gradient was set as follows: 0 min (80% B); 15 min (100% B); 23.2 min (80% B) at a flow rate of 0.7 mL min^−1.
Data represent the mean±standard deviation of three independent experiments (FIG. 5A and FIG. 6A).

Molecule	activity at 30° C. compared with the wildtype enzymes [1]	conversion of oleic acid to 10-hydroxystearic acid [1]	specific enzyme activity at the relative activity of 100% [2]	temperature of highest enzyme activity (temperature optimum) [2]	temperature of maximal enzyme activity [3]	pH optimum [4]
1LI-2Lf: chimeric oleate hydratase: 193 N-terminal amino acids of Lactococcus lactis enzyme and 397 C-terminal amino acids of Lysinibacillus fusiformis enzyme (protein, OhyLlac579Lfus, chimeric oleate hydratase: 193 N-terminal amino acids of Lactococcus lactis enzyme and 397 C-terminal amino acids of Lysinibacillus fusiformis enzyme) MRYTNGNYEAFVHPRKPENVDQKSAYIIGAGLAGLATAVFLIRDGQMSGDRIHILEELPLSGGSLDGSFIPHDGFVVRGGREMENHFECLWDLFRTIPSLEVDNASVLDEFYRIDRDDPNSSNCRIIHNRGERVDDDGKFTLSPKAQEEIIKLFMTKEELLVGKTIEDCFTDEFFESNFWLYWCSMFAFEKWHSAMEMRRYIMRFIHHIGGLPDLSALKFTKYNQYESLVLPMIKYLEGHDVDFQYNTVVENVLVDKVGDKKVAHTLVLRKNGVKENIELTENELVFVTNGSITESTTYGDNYTPAPVNKELGGSWSLWKNIAAQDTDFGRPEKFCDNLPKESWFVSATLTTLDDRVAPYIEKISKRDPYAGKVVTGGIVTATDSNWMLSYTLNRQPHFKHQPKDQLVVWIYGLLSNKPGDFIKKSITECSGIEIAQEWLYHMGVPVDEIPDIAQNSCNTIPCYMPYITSYFMPRAMGDRPLVVPEGSANLAFIGNFSETVRDTVFTTEYSVRTAMEAVYQLLNIDRGVPEVFASSFDVRTLLASTARLLDGKKLTDIDAPFILKQIGKLGIHKTKDTIIYDLLKESELI	higher than the wildtype enzyme from Lactococcus lactis and lower than the wildtype enzyme from Lysinibacillus fusiformis	confirmed	–	–	–	–
oleate hydratase from Lactococcus lactis: oleate hydratase of Lactococcus lactis strain A106, previously annotated as linoleate isomerase (protein, listed as Lactococcus lactis, Oleat Hydratase, oleate hydratase of Lactococcus lactis strain A106, previously annotated as linoleate isomerase) MRYTNGNYEAFVHPRKPENVDQKSAYIIGAGLAGLATAVFLIRDGQMSGDRIHILEELPLSGGSLDGSFIPHDGFVVRGGREMENHFECLWDLFRTIPSLEVDNASVLDEFYRIDRDDPNSSNCRIIHNRGERVDDDGKFTLSPKAQEEIIKLFMTKEELLVGKTIEDCFTDEFFESNFWLYWCSMFAFEKWHSAIEMRRYIMRFIHHIEGLPDFSALKFTKYNQYESLVKPLISYLKDHGVDFKYGAQVENVEVDFSNGKKVAKAIVFADKKIKELTGNDLVFVTNGSITESSTQGSPTQVAPKTSELGGSWKLWQNLAKQSEEFGHPDVFCKDIPKEAWVVSATVTWKNLKIQPYFEKLTHRQLRSGKVVTGGIVTVKDSNWLLSFTTHRQPHFKEQNDQETVTWVYGLLSNTPGNYIKKPIEDCTGEEITQELLYHLGMPEEEIEAFVKENTNTIPVYMPFITSYFMLREPGDRPLVVPEQSVNLAFLGNFAETERDTVFTTEYSVRTAMEAVYQLLNVDRGVPEVYASAYDLRTLASSAYYLSDKQKLEDLELSFIKKQALKVGLKKIKGTYIEELLEDAGLI	–	–	0.8 μmol min^−1 mg^−1 total protein	15 °C	–	–
oleate hydratase from Lysinibacillus fusiformis: oleate hydratase of Lysinibacillus fusiformis, known from the prior art (protein, listed as Lysinibacillus fusiformis, Oleat Hydratase, oleate hydratase of Lysinibacillus fusiformis, known from the prior art) MYYSNGNYEAFARPKKPEGVDGKSAYLIGSGLASLSAACFLIRDGQMKGENIHILEELDISGGSLDGILNPTRGFIIRGGREMEDHFECLWDLFRSIPSLEVDNASVLDEFYWLNKEDPNYSKCRLIKDRGQRLEDDGKFTLSDQSSEEMIKLFFTPEEKLEDKKITDVFSEEFFESNFWLYWSTMFAFEKWHSAMEMRRYIMRFIHHIGGLPDLSALKFTKYNQYESLVLPMIKYLEGHDVDFQYNTVVENVLVDKVGDKKVAHTLVLRKNGVKENIELTENELVFVTNGSITESTTYGDNYTPAPVNKELGGSWSLWKNIAAQDTDFGRPEKFCDNLPKESWFVSATLTTLDDRVAPYIEKISKRDPYAGKVVTGGIVTATDSNWMLSYTLNRQPHFKHQPKDQLVVWIYGLLSNKPGDFIKKSITECSGIEIAQEWLYHMGVPVDEIPDIAQNSCNTIPCYMPYITSYFMPRAMGDRPLVVPEGSANLAFIGNFSETVRDTVFTTEYSVRTAMEAVYQLLNIDRGVPEVFASSFDVRTLLASTARLLDGKKLTDIDAPFILKQIGKLGIHKTKDTIIYDLLKESELI	–	–	–	–	35 °C	–
1Lf-2LI: chimeric oleate hydratase: 193 N-terminal amino acids of Lysinibacillus fusiformis enzyme and 394 C-terminal amino acids of Lactococcus lactis enzyme (protein, OhyLfus581Llac, chimeric oleate hydratase: 193 N-terminal amino acids of Lysinibacillus fusiformis enzyme and 394 C-terminal amino acids of Lactococcus lactis enzyme) MYYSNGNYEAFARPKKPEGVDGKSAYLIGSGLASLSAACFLIRDGQMKGENIHILEELDISGGSLDGILNPTRGFIIRGGREMEDHFECLWDLFRSIPSLEVDNASVLDEFYWLNKEDPNYSKCRLIKDRGQRLEDDGKFTLSDQSSEEMIKLFFTPEEKLEDKKITDVFSEEFFESNFWLYWSTMFAFEKWHSAIEMRRYIMRFIHHIEGLPDFSALKFTKYNQYESLVKPLISYLKDHGVDFKYGAQVENVEVDFSNGKKVAKAIVFADKKIKELTGNDLVFVTNGSITESSTQGSPTQVAPKTSELGGSWKLWQNLAKQSEEFGHPDVFCKDIPKEAWVVSATVTWKNLKIQPYFEKLTHRQLRSGKVVTGGIVTVKDSNWLLSFTTHRQPHFKEQNDQETVTWVYGLLSNTPGNYIKKPIEDCTGEEITQELLYHLGMPEEEIEAFVKENTNTIPVYMPFITSYFMLREPGDRPLVVPEQSVNLAFLGNFAETERDTVFTTEYSVRTAMEAVYQLLNVDRGVPEVYASAYDLRTLASSAYYLSDKQKLEDLELSFIKKQALKVGLKKIKGTYIEELLEDAGLI	higher than the wildtype enzyme from Lactococcus lactis and lower than the wildtype enzyme from Lysinibacillus fusiformis	confirmed	1.0 μmol min^−1 mg^−1 total protein	–	–	6.5
